Measurements as given in patent US20260242478A1 (published 2026).
Like-named read-outs stand apart in the source and are kept apart here. Where no end group is shown, it is not given here.

B1: Peptide-269 (peptide)
peptide: EEPLCRPVWMCEGF
notes: From the Peptide-180 optimisation phage library
B2: Peptide-272 (peptide)
peptide: LHVYCVPEWMCAGF
notes: as for B1
B3: Phage-49 clonal phage peptide (peptide, not shown: large carriers)
peptide: MSWCPIHLWNECFN
modifications: cysteine pairing not given here; also: displayed on phage by fusion to pIII, linker and pIII sequence not given here
B4: Peptide-279 (peptide)
peptide: YERACIPNWICEGF
notes: as for B1
B5: Peptide-262 (peptide)
peptide: IVPLCKPAWMCKLF
notes: as for B1
B6: Peptide-278 (peptide)
peptide: PEHLCLPRWMCEGF
notes: as for B1
B7: Peptide-265 (peptide)
peptide: AEVKCIPQWMCQGF
notes: as for B1
B8: Peptide-261 (peptide)
peptide: YFVQCRPAWMCEGF
notes: as for B1
B9: Phage-53 clonal phage peptide (peptide, not shown: large carriers)
peptide: MDWCPMHLWNKCFN
modifications: cysteine pairing not given here; also: displayed on phage by fusion to pIII, linker and pIII sequence not given here
B10: Peptide-264 (peptide)
peptide: VQIQCRPAWMCLGF
notes: as for B1
B11: Phage-50 clonal phage peptide (peptide, not shown: large carriers)
peptide: MDWCPPYLWNVCFS
modifications: cysteine pairing not given here; also: displayed on phage by fusion to pIII, linker and pIII sequence not given here
B12: Peptide-281 (peptide)
peptide: VNHWCVPTWMCAGF
notes: as for B1
B13: Phage-51 clonal phage peptide (peptide, not shown: large carriers)
peptide: MDWCPMDLWDYCFN
modifications: cysteine pairing not given here; also: displayed on phage by fusion to pIII, linker and pIII sequence not given here
B14: Peptide-280 (peptide)
peptide: TTHVCIPSWMCSGF
notes: as for B1
B15: Phage-54 clonal phage peptide (peptide, not shown: large carriers)
peptide: MNWCPRDMWYQCFN
modifications: cysteine pairing not given here; also: displayed on phage by fusion to pIII, linker and pIII sequence not given here
B16: Peptide-287 (peptide)
peptide: PERLCTPPWMCLGF
notes: as for B1
B17: Peptide-266 (peptide)
peptide: TAHHCKPAWMCTGF
notes: as for B1
B18: Phage-55 clonal phage peptide (peptide, not shown: large carriers)
peptide: QDWCPRHMWSFCFH
modifications: cysteine pairing not given here; also: displayed on phage by fusion to pIII, linker and pIII sequence not given here
B19: Peptide-276 (peptide)
peptide: ITPICKPAWICSGF
notes: as for B1
B20: Peptide-273 (peptide)
peptide: LEPLCVPRWMCVGF
notes: as for B1
B21: Phage-52 clonal phage peptide (peptide, not shown: large carriers)
peptide: MDWCPINLWDECFS
modifications: cysteine pairing not given here; also: displayed on phage by fusion to pIII, linker and pIII sequence not given here

Tests used:
[1] = target: T1, Anti-CD28 scFv (VH - linker 1 - VL) (biotinylated (site not stated)); assay: phage binding ELISA on captured anti-CD28 scFv; wells pre-incubated with soluble CD28 protein (competitor)
T1 sequence (scFv, as listed by the source): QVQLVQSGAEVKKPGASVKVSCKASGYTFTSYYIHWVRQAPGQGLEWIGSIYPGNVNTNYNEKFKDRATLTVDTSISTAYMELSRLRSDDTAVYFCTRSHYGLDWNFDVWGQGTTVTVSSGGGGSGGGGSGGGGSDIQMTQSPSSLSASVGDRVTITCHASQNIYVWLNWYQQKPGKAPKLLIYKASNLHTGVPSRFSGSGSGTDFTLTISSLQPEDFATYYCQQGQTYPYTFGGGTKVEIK

[2] = target: T1, Anti-CD28 scFv (VH - linker 1 - VL); assay: phage binding ELISA; biotinylated anti-CD28 scFv on neutravidin plate, clonal phage supernatant, anti-M13 HRP detection
Experimental: Clonal phage were harvested as crude supernatants and screened via standard enzyme linked immunosorbent assays (ELISAs). […] Prior to the addition of clonal phage, wells were incubated with blocking buffer and CD28 soluble protein or blocking buffer alone. Without washing or aspirating, clonal phage supernatants were then added to the wells and incubated for a short time. Wells were then washed followed by detection of bound phage using a horse radish peroxidase conjugated anti-M13 antibody.

PSMA Fab [3] = target: T2, PSMA Fab; assay: competition ELISA; peptide 0-100 µM with 0.3 nM PSMA Fab on plate-captured biotinylated PSMA
T2 construct: also called 006 PSMA Fab; anti-PSMA Fab

PSMA Fab [4] = target: T2, PSMA Fab; assay: as above; remark: listed apart in the source

Binder	CD28 scFv signal in presence of CD28 [1]	CD28 scFv signal [2]	IC50 (PSMA Fab [3]) [µM]	IC50 (PSMA Fab [4]) [µM]
MAWCPVYLWHECFN (peptide, not shown: large carriers) [Phage-47 clonal phage peptide]	0.351	2.27		
B1			9.14	
B2			1.92	
B3	0.284	2.06		
LEKTCIPTWMCVGF [Peptide-234]				2.08
MDWCPRHRWVDCFY (peptide, not shown: large carriers) [Phage-57 clonal phage peptide]	0.11	0.478		
EFKWCIPSWMCHET [Peptide-228]				1.92
MAWCPRDKWSECFS (peptide, not shown: large carriers) [Phage-41 clonal phage peptide]	0.147	0.853		
B4			5.18	
MDWCPRPLWHECFS (peptide, not shown: large carriers) [Phage-45 clonal phage peptide]	0.121	2.35		
B5			1.3	
B6			2.4	
MDWCPRDSWHLCFA (peptide, not shown: large carriers) [Phage-59 clonal phage peptide]	0.147	2.45		
VLKWCRPAWMCEVL [Peptide-216]				2.91
B7			1.78	
B8			1.3	
B9	0.122	1.04		
MHWCPIDLWAECYA (peptide, not shown: large carriers, cysteine pairing not given here; also: displayed on phage, fused to pIII) [Phage-46 clonal phage peptide]	0.225	2.28		
B10			1.14	
ISKWCIPEWMCTSP [Peptide-237]				2.7
MVSCPTTMWNRCFN (peptide, not shown: large carriers) [Phage-61 clonal phage peptide]	0.072	1.33		
B11	0.1	1.64		
MHWCPIDRWADCFN (peptide, not shown: large carriers) [Phage-58 clonal phage peptide]	0.077	0.287		
IDWCPRYLWDECYN (peptide, not shown: large carriers) [Phage-48 clonal phage peptide]	0.153	2.24		
FEKWCTPPWMCSLF [Peptide-222]				4.16
FVPLCKPAWMCSFV [Peptide-218]				2.85
FEKLCVPKWMCEGI [Peptide-220]				1.57

Binder	CD28 scFv signal in presence of CD28 [1]	CD28 scFv signal [2]	IC50 (PSMA Fab [3]) [µM]	IC50 (PSMA Fab [4]) [µM]
IDKLCIPFWMCENL [Peptide-221]				2.13
B12			1.02	
B13	0.107	1.64		
MDWCPSYLWNECFF (peptide, not shown: large carriers) [Phage-62 clonal phage peptide]	0.133	2		
B14			6.65	
B15	0.177	1.95		
MDWCPRTLWYLCFN (peptide, not shown: large carriers) [Phage-60 clonal phage peptide]	1.2	2.59		
VGKLCVPEWMCVGL [Peptide-217]				2.49
B16			2.22	
EGIRCTPIWMCEGF [Peptide-224]				1.88
WEKLCTPAWMCVGF [Peptide-214]				3.54
B17			1.81	
VVKACIPTWMCQFV [Peptide-229]				4.07
MDWCPIALWAECFN (peptide, not shown: large carriers) [Phage-44 clonal phage peptide]	0.224	2.46		
MDWCPRALWAECFN (peptide, not shown: large carriers) [Phage-64 clonal phage peptide]	0.339	2.68		
B18	0.081	0.074		
B19			3.46	
MDWCPIDMWDQCFN (peptide, not shown: large carriers) [Phage-40 clonal phage peptide]	0.297	2.66		
MDWCPRHLWVHCFN (peptide, not shown: large carriers) [Phage-42 clonal phage peptide]	0.254	2.5		
B20			0.9	
LEKLCKPAWMCVNF [Peptide-238]				1.55
LTKLCIPDWMCSEF [Peptide-226]				2.68
LEKLCIPAWMCEWL [Peptide-215]				2.94
B21	0.096	1.5		
MHWCPMDQWSNCFN (peptide, not shown: large carriers) [Phage-56 clonal phage peptide]	0.084	0.515		
DLRLCKPAWMCYFI [Peptide-223]				1.47
DLRLCKPAWMCDFI [Peptide-231]				1.27
